{
  "source": "patent US9212226B2",
  "about": "“Amino acid sequences directed against CXCR4 and other GPCRs and compounds comprising the same” (Ablynx N.V., priority 2008, dated 2015)",
  "key": {"CXCR3": {"target": "T1, CXCR3 (Homo sapiens, UniProt P49682)", "T1 sequence (P49682 1-368)": "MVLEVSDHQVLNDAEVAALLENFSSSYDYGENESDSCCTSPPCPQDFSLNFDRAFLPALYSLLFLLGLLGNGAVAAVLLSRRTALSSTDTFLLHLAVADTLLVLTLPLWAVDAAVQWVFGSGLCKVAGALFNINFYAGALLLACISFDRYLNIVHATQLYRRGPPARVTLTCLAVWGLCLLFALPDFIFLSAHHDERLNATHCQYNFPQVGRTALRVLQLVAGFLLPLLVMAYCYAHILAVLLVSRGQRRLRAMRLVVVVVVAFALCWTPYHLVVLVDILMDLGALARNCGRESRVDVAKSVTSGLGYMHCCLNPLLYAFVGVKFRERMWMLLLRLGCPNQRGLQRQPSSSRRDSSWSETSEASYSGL", "experiment": "Binding of [125I]-238D2 / [125I]-238D4 to membranes from HEK293T cells expressing CXCR4 or CXCR3", "conditions": "radiolabelled Nanobody"}, "CXCR4": {"target": "CXCR4 (Homo sapiens, UniProt P61073)", "sequence (P61073 with tags, fused parts or gaps isoform P61073-2 limits assumed)": "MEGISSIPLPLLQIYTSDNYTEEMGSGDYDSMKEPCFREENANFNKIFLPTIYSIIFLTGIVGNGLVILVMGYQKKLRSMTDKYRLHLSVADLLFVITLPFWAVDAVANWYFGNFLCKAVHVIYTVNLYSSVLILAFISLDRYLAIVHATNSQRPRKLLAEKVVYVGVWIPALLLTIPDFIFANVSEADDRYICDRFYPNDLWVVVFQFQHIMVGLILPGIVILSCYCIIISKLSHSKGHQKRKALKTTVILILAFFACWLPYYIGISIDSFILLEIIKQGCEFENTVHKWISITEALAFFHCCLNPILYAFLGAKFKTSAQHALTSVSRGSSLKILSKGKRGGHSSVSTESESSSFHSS", "experiment": "Phage ELISA binding assay on CHO-CXCR4 versus CHO membranes", "design": "expressed in transfected cells; host or cells: CHO cells (membrane preparation)", "conditions": "monoclonal phages, CHO-CXCR4 vs CHO membranes", "experimental": "FIG. 2. Results from Phage ELISA (as described in example 1.5).\nIn order to determine binding specificity of the Nanobodies, 15 ul of the produced phage were tested in an Phage ELISA binding assay.\nIn short, 2 ug in 100 ul PBS of membrane expressing either CXCR4 (CHO-CXCR4) or a non relevant GPCR(CHO) were coated directly on Maxisorp microtiter plates (Nunc) overnight at 4 C. Free binding sites were blocked using 4% Marvel in PBS for 1 h. Next, 15 ul of monoclonal phages was added in 100 ul 1% Marvel PBS for 2 hours. […] Binding specificity (binding to CHO-CXCR4) was determined based on OD values compared to controls (binding to CHO)."}},
  "data": [
    {"molecule": "[^125I]-238D4: 125I-labeled Nanobody 238D4 used as radioligand (protein) VHH: EVQLMESGGGLVQAGGSLRLSCAASGRTFNNYAMGWFRRAPGKEREFVAAITRSGVRSGVSAIYGDSVKDRFTISRDNAKNTLYLQMNSLKPEDTAVYTCAASAIGSGALRRFEYDYSGQGTQVTVSS", "values": [
      {"measurement": "binding to CXCR4 membranes compared to CXCR3 membranes", "setting": "CXCR3", "result": "selectively bind"}
    ]},
    {"molecule": "[^125I]-238D2: 125I-labeled Nanobody 238D2 used as radioligand (protein) VHH: EVQLVESGGGLVQTGGSLRLSCAASGFTFSSYAMSWVRQAPGKGLEWVSGIKSSGDSTRYAGSVKGRFTISRDNAKNMLYLQMYSLKPEDTAVYYCAKSRVSRTGLYTYDNRGQGTQVTVSS", "values": [
      {"measurement": "binding to CXCR4 membranes compared to CXCR3 membranes", "setting": "CXCR3", "result": "selectively bind"}
    ]},
    {"molecule": "238F3: Nanobody (VHH) raised against human CXCR4, SEQ ID NO: 247 (protein, Nanobody, Nanobody constructs or fragments thereof) VHH: EVQLVESGGGLAQAGGSLRLSCAASGRTYAMGWFRQAPGKEREFVTTSRLITDNIIYADSVKGRFTLTRDNGKNTVYLQMDSLKPDDTAVYFCAARQNYSRSVFGAKDYDYWGQGTQVTVSS", "values": [
      {"measurement": "specificity toward CXCR4 expressing membrane compared to non-expressing membrane", "setting": "CXCR4", "result": "high specificity"}
    ]}
  ]
}
